{"source": "the Immune Epitope Database (IEDB)"}
{"molecular_target": "HLA-B*38:01", "experiment": "IEDB peptide-MHC binding, purified MHC/competitive/radioactivity; ≥ and ≤ were set here for values at or beyond the usual limits of such assays", "conditions": "source organism: Human immunodeficiency virus 1", "units": {"IC50": "nM"}}
{"sequence": "GHQAAMQML", "IC50": 1020}
{"sequence": "KMQKEHALF", "IC50": 12100}
{"sequence": "KRHKEFALF", "IC50": 1100}
{"sequence": "KTQKEYALF", "IC50": 40600}
{"sequence": "MHEDIISLW", "IC50": 53}
{"sequence": "WHLGQGVSI", "IC50": 10}
{"molecular_target": "HLA-B*38:01", "experiment": "IEDB peptide-MHC binding, purified MHC/competitive/radioactivity; ≥ and ≤ were set here for values at or beyond the usual limits of such assays", "conditions": "source organism: Simian immunodeficiency virus", "units": {"IC50": "nM"}}
{"sequence": "DHQAAMQII", "IC50": 125}
{"sequence": "DRFGLAESL", "IC50": 30}
{"sequence": "FRQYTAFTL", "IC50": 17}
{"sequence": "IHGQANSDL", "IC50": 2360}
{"sequence": "NETWYSADL", "IC50": 3920}
{"sequence": "NHLPRELIF", "IC50": 1120}
{"sequence": "THIQQDPAL", "IC50": 148}
{"sequence": "THTNGVRLL", "IC50": 617}
{"sequence": "VPSLQYLAL", "IC50": 1530}
{"sequence": "WLFSNCRTL", "IC50": 993}
{"molecular_target": "HLA-B*38:01", "experiment": "IEDB peptide-MHC binding, purified MHC/competitive/radioactivity; ≥ and ≤ were set here for values at or beyond the usual limits of such assays", "conditions": "source organism: Vaccinia virus", "units": {"IC50": "nM"}}
{"sequence": "IHIPGDTLF", "IC50": 11}
{"molecular_target": "HLA-B*38:01", "experiment": "IEDB peptide-MHC binding, purified MHC/competitive/radioactivity; ≥ and ≤ were set here for values at or beyond the usual limits of such assays", "conditions": "source organism: Variola virus", "units": {"IC50": "nM"}}
{"sequence": "RHDITGFIL", "IC50": 6.4}
{"sequence": "YKEPNSIIL", "IC50": 4730}
{"molecular_target": "HLA-B*39:06", "experiment": "IEDB peptide-MHC binding, purified MHC/competitive/radioactivity; ≥ and ≤ were set here for values at or beyond the usual limits of such assays", "conditions": "source organism: Homo sapiens", "units": {"IC50": "nM"}}
{"sequence": "ARFTGIKTA", "IC50": 6}
{"sequence": "DHHLPPPAA", "IC50": 72}
{"sequence": "ERFYGKYTA", "IC50": 9.2}
{"sequence": "ERMKLVVQA", "IC50": 15}
{"sequence": "FRYQGHVGA", "IC50": 1.7}
{"sequence": "GRSIAFHSA", "IC50": 40}
{"sequence": "HRLEGLREA", "IC50": 9.6}
{"sequence": "IEHDVVMKA", "IC50": 137}
{"sequence": "LQHPFVRSA", "IC50": 7.7}
{"sequence": "NHINVELSL", "IC50": 27900}
{"sequence": "NRVMLPKAA", "IC50": 2.7}
{"sequence": "NRYDGIYKV", "IC50": 371}
{"sequence": "SRYLGKITA", "IC50": 8.1}
{"sequence": "TFDVAPSRL", "IC50": 353}
{"sequence": "THNYGIGAA", "IC50": 15}
{"sequence": "TQRLIRESA", "IC50": 11}
{"sequence": "TRYQIPKEV", "IC50": 450}
{"sequence": "YHDIKRITA", "IC50": 17}
{"sequence": "YYDEKVVKL", "IC50": 3730}
{"molecular_target": "HLA-B*39:06", "experiment": "IEDB peptide-MHC binding, purified MHC/competitive/radioactivity; ≥ and ≤ were set here for values at or beyond the usual limits of such assays", "conditions": "source organism: Mus musculus", "units": {"IC50": "nM"}}
{"sequence": "EAFEHTPGV", "IC50": "≥ 77000"}
{"sequence": "EHTPGVHMA", "IC50": 1210}
{"sequence": "IHIDSTPFA", "IC50": 2200}
{"sequence": "INSEMFLRS", "IC50": "≥ 77000"}
{"sequence": "LVAEAFEHT", "IC50": "≥ 76100"}
{"sequence": "MALWMRFLP", "IC50": 11900}
{"sequence": "TNVFLFLFA", "IC50": 68800}
{"sequence": "YRFIKIPTH", "IC50": 1350}
